Experimental data taken from patent publication US20260176621A1, “Metabolically Stabilized Carbohydrate Targeting Ligands For Oligonucleotide Conjugates” (Arrowhead Pharmaceuticals, Inc., priority 2023, published 2026).

Assays:
ANGPTL3 = assay: Serum ANGPTL3 protein by ELISA after single SC dose in cynomolgus monkeys (Example 4); assay type: in vivo, cynomolgus macaque (Macaca fascicularis); set-up: key to Avg cANGPTL3 normalized to pre-treatment and control: ratio to animal's pre-dose geometric mean, then to saline group mean
Procedure: (§1) Multimeric (dimer) RNAi agent conjugates that included metabolically stabilized NAG targeting ligands were evaluated for gene silencing activity in cynomolgus macaque (Macaca fascicularis) primates (referred to herein as “cynos”). Each of the multimeric RNAi agent conjugates evaluated included one RNAi agent of the conjugate having sufficient complementarity with the mouse Angiopoietin-like 3 (ANGPTL3) gene transcript, and a second RNAi agent having sufficient complementarity with the mouse Factor 12 (FXII) gene transcript. As discussed in more detail below, both FXII and ANGPTL3 gene expression levels were assessed.
(§2) At day 1, male cynos were given a single subcutaneous administration of 0.3 mL/kg animal weight (20 mg/mL concentration) containing 6.0 mg/kg (mpk) of a multimeric RNAi agent conjugate formulated in isotonic saline, or 3.0 mg/kg of two separate RNAi conjugates, according to the following Table 3.
(§3) Three (3) cynos were dosed in each Group (n=3). Serum samples were taken on days −14, −7, and day 1 (pre-dose). Serum was then collected on days 8, 15, 22, 29, 36 43, 50, 57, 64, 71, 78, 98, 106, 120, 133, 148, and 162.
(§4) ANGPTL3 protein levels in serum were measured by ELISA assay (R&D Systems), according to the manufacturer's recommendations. FXII protein levels in serum were measured by ELISA assay (R&D Systems), according to the manufacturer's recommendations. The ANGPTL3 protein levels and FXII protein levels for each animal were normalized. For normalization, the level of ANGPTL3 protein or FXII protein, respectively, for each animal at a time point, was divided by the geometric mean of pre-treatment level of expression in that animal (in this case at days −14, −7 and 1 (pre-dose)) to determine the ratio of expression “normalized to pre-treatment.” Expression at a specific time point was then normalized to the saline control group by dividing the “normalized to pre-treatment” ratio for an individual animal by the mean “normalized to pretreatment” ratio of all […] in the saline control group.

FXII = assay: Serum FXII protein by ELISA after single SC dose in cynomolgus monkeys (Example 4); assay type: in vivo, cynomolgus macaque (Macaca fascicularis); set-up: key to Avg cFXII normalized to pre-treatment and control: ratio to animal's pre-dose geometric mean, then to saline group mean
Procedure: as §1, §2, §3, §4

[1] = Day 8, single SC dose day 1, 6.0 mg/kg (Group 1: 3.0+3.0 mg/kg)
[2] = Day 15, single SC dose day 1, 6.0 mg/kg (Group 1: 3.0+3.0 mg/kg)
[3] = Day 22, single SC dose day 1, 6.0 mg/kg (Group 1: 3.0+3.0 mg/kg)
[4] = Day 29, single SC dose day 1, 6.0 mg/kg (Group 1: 3.0+3.0 mg/kg)
[5] = Day 36, single SC dose day 1, 6.0 mg/kg (Group 1: 3.0+3.0 mg/kg)
[6] = Day 43, single SC dose day 1, 6.0 mg/kg (Group 1: 3.0+3.0 mg/kg)
[7] = Day 50, single SC dose day 1, 6.0 mg/kg (Group 1: 3.0+3.0 mg/kg)
[8] = Day 57, single SC dose day 1, 6.0 mg/kg (Group 1: 3.0+3.0 mg/kg)
[9] = Day 64, single SC dose day 1, 6.0 mg/kg (Group 1: 3.0+3.0 mg/kg)
[10] = Day 71, single SC dose day 1, 6.0 mg/kg (Group 1: 3.0+3.0 mg/kg)
[11] = Day 78, single SC dose day 1, 6.0 mg/kg (Group 1: 3.0+3.0 mg/kg)
[12] = Day 98, single SC dose day 1, 6.0 mg/kg (Group 1: 3.0+3.0 mg/kg)
[13] = Day 106, single SC dose day 1, 6.0 mg/kg (Group 1: 3.0+3.0 mg/kg)
[14] = Day 120, single SC dose day 1, 6.0 mg/kg (Group 1: 3.0+3.0 mg/kg)
[15] = Day 133, single SC dose day 1, 6.0 mg/kg (Group 1: 3.0+3.0 mg/kg)

B1: AD14216: multimeric (dimer) FXII-ANGPTL3 RNAi agent conjugate with NAG37s ligand, not metabolically stabilized, SEQ ID NO 5-7 (nucleic acid)
chain 1: UUCAAAGCACUUUAUUGAG
chain 2: UUGAGUUGAGUUCAAGUGA
chain 3: UCACUUGAACUCAACUCAACUCAAUAAAGUGCUUUGAA
modifications: NAG37s ligand conjugate; modified_base 1 OTHER; 5'-cyclopropyl phosphonate-2'-O-methyluridine; modified_base 1^2 OTHER; phosphorothioate linkage; modified_base 2 OTHER; 2'-fluorouridine; modified_base 2^3 OTHER; modified_base 3 cm; modified_base 3^4 OTHER; modified_base 4 OTHER; 2'-fluoroadenosine; modified_base 5 OTHER; 2'-O-methyladenosine; modified_base 6 OTHER; 2'-fl; phosphoro
ANGPTL3; [1]
  Avg cANGPTL3 normalized to pre-treatment and control: 0.442
ANGPTL3; [2]
  Avg cANGPTL3 normalized to pre-treatment and control: 0.362
ANGPTL3; [3]
  Avg cANGPTL3 normalized to pre-treatment and control: 0.339
  cANGPTL3 knockdown: approximately 66%
ANGPTL3; [4]
  Avg cANGPTL3 normalized to pre-treatment and control: 0.403
ANGPTL3; [5]
  Avg cANGPTL3 normalized to pre-treatment and control: 0.369
ANGPTL3; [6]
  Avg cANGPTL3 normalized to pre-treatment and control: 0.394
ANGPTL3; [7]
  Avg cANGPTL3 normalized to pre-treatment and control: 0.560
ANGPTL3; [8]
  Avg cANGPTL3 normalized to pre-treatment and control: 0.622
ANGPTL3; [9]
  Avg cANGPTL3 normalized to pre-treatment and control: 0.590
ANGPTL3; [10]
  Avg cANGPTL3 normalized to pre-treatment and control: 0.641
ANGPTL3; [11]
  Avg cANGPTL3 normalized to pre-treatment and control: 0.603
ANGPTL3; [12]
  Avg cANGPTL3 normalized to pre-treatment and control: 0.666
ANGPTL3; [13]
  Avg cANGPTL3 normalized to pre-treatment and control: 0.944
  cANGPTL3 knockdown: no meaningful knockdown
ANGPTL3; [14]
  Avg cANGPTL3 normalized to pre-treatment and control: 1.128
ANGPTL3; [15]
  Avg cANGPTL3 normalized to pre-treatment and control: 1.129
FXII; [1]
  Avg cFXII normalized to pre-treatment and control: 0.481
FXII; [2]
  Avg cFXII normalized to pre-treatment and control: 0.320
FXII; [3]
  Avg cFXII normalized to pre-treatment and control: 0.222
  cFXII knockdown: approximately 78%
FXII; [4]
  Avg cFXII normalized to pre-treatment and control: 0.179
FXII; [5]
  Avg cFXII normalized to pre-treatment and control: 0.224
FXII; [6]
  Avg cFXII normalized to pre-treatment and control: 0.237
FXII; [7]
  Avg cFXII normalized to pre-treatment and control: 0.130
FXII; [8]
  Avg cFXII normalized to pre-treatment and control: 0.194
FXII; [9]
  Avg cFXII normalized to pre-treatment and control: 0.184
FXII; [10]
  Avg cFXII normalized to pre-treatment and control: 0.429
FXII; [11]
  Avg cFXII normalized to pre-treatment and control: 0.491
FXII; [12]
  Avg cFXII normalized to pre-treatment and control: 0.592
  cFXII knockdown: approximately 41%
FXII; [13]
  Avg cFXII normalized to pre-treatment and control: 0.520
FXII; [14]
  Avg cFXII normalized to pre-treatment and control: 0.567
FXII; [15]
  Avg cFXII normalized to pre-treatment and control: 0.784
FXII; Day 148, single SC dose day 1, 6.0 mg/kg (Group 1: 3.0+3.0 mg/kg)
  Avg cFXII normalized to pre-treatment and control: 0.589
FXII; Day 162, single SC dose day 1, 6.0 mg/kg (Group 1: 3.0+3.0 mg/kg)
  Avg cFXII normalized to pre-treatment and control: 0.728
